# US20140271467A1 (Stanford University, published 2014)
# T1: biotinylated human CD20 extracellular loop peptide (amino acids 165-185) (human, biotin at the C-terminus (printed as SEQ ID NO: 1-biotin))
# T1 construct: Chemically synthesized; also called CD20 peptide; biotin-CD20 peptide
# T1 peptide: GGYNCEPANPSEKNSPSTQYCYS
# T2: human CD20 antigen on live Ramos cells (human, UniProt P11836 1-297)
# T2 construct: whole, on cells; Endogenous CD20 on Ramos cells (ATCC); also called cellular CD20; huCD20
# T2 sequence (looked up): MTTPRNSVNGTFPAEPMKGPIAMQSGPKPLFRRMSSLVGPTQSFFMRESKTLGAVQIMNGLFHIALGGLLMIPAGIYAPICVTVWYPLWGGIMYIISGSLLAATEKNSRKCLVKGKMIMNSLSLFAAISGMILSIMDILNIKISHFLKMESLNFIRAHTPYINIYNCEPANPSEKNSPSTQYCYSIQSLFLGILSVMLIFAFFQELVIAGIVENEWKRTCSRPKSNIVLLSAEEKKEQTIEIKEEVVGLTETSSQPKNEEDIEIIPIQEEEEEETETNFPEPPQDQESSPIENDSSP
# Legend:
# [1] = biological target: T1, biotinylated human CD20 extracellular …; test: selection from the G4 library against the CD20 peptide
# Description: The human CD20 peptide extracellular loop was synthesized (amino acids: 165-185; […] (SEQ ID NO: 1)-biotin) and purified by RP-HPLC on a C-18 column and lyophilized as per the published procedure (29). This peptide was characterized by ESI-MS and immobilized on streptavidin magnetic beads for screening of FN3 binders. […] Briefly, yeast displaying 2.5×10⁸ FN3 mutants were sorted for binding to magnetic beads with immobilized CD20 peptide, followed by fluorescence-activated cell sorting for full-length proteins using the C-terminal c-myc epitope. Plasmid DNA from selected clones was recovered, mutated by error-prone PCR of either the entire FN3 gene or the paratope loops, and reintroduced into yeast by electroporation with homologous recombination. As binder enrichment progressed in later evolutionary cycles, fluorescence-activated cell sorting for binding to soluble CD20 peptide was also used. Six cycles of selection and mutation were performed. Plasmid DNA was recovered, transformed into bacteria, and individual clones were sequenced by standard DNA sequencing methods.
# [2] = biological target: T1, biotinylated human CD20 extracellular …; test: affinity titration with yeast surface display and flow cytometry, biotinylated CD20
# [3] = biological target: T2, human CD20 antigen on live Ramos cells; test: radiotracer binding to Ramos cells
# [4] = biological target: T2, human CD20 antigen on live Ramos cells; test: flow cytometry on live Ramos cells, 1:1 fit; flow cytometry, live Ramos cells (cellular CD20)
# Protocol: FIG. 1C illustrates a graph showing the antigen-binding activity of FN3CD20. Ramos cells were incubated with the indicated concentration (0.5-80 nM) of FITC-FN3CD20 for 1 h at 4° C. Cells were washed and analyzed by flow cytometry. The data are expressed as the mean±standard deviation of three independent experiments. Data were normalized with respect to saturated fluorescence intensity (plateau) observed at the highest target concentrations.
# [5] = biological target: T1, biotinylated human CD20 extracellular …; test: SPR (Biacore), biotin-CD20 peptide on a streptavidin chip, 1:1 fit, 25 C; SPR, CD20 peptide (amino acids 165-185)
# Protocol: FN3CD20 protein (0.4, 2, 10, 50, 250, and 750 nM) was diluted in HBS and injected into the chip at a flow rate of 15 μL/min for 1 min at 25° C.
# All measurements were performed at 25° C. on a BIAcore 100 instrument and streptavidin chip (GE healthcare Biosciences, PA). The streptavidin chip was first cleaned with three consecutive 1-min. injections of 40 μl, of a solution of 1 M NaCl in 50 mM NaOH before the immobilization procedure. Five minutes after the cleaning process when the sensorgram reached a stable baseline, biotynalated CD20 peptide, diluted in running buffer to 20 μg/mL, was injected for 7 min. using a flow rate of 5 μL/min. The same procedure was performed for immobilization of non-specific CD20 peptide, except that the non-specific CD20 peptide was diluted in running buffer to 200 μg/ml. To attain maximum immobilization level of biotin peptides on the surface of streptavidin, multiple injections were performed.
# Target antigen of CD20 peptide was immobilized on a streptavidin chip. FN3CD20 was analyzed in 10 mM HEPES, pH 7.4, 150 mM NaCl, 0.005% Tween 20 at […] concentrations between 0 and 750 nM, and non-specific FN3 was used as control. The flow-rate was 15 μl/min; association and dissociation times were 1 and 2 min, respectively. […] The data were analyzed using BIAeval (BIAcore) software, with a global fitting to the 1:1 binding model. […]
binder,measurement,setting,value
"FN3CD20-01 (fibronectin type 3 domain clone selected against the CD20 peptide from the G4 library) (designed binder, It was a library clone during selection) ASVSDVPRDLEVVAATPTSLLISWHYTCAGSYRITYGETGGNSPVQEFTVPGSWKTATISGLKPGVDYTITVYAVTHYYGWDRYSHPISINYRTGSHHHHHH",binding result,[1],binds
"FN3CD20-02 (fibronectin type 3 domain clone selected against the CD20 peptide from the G4 library) (designed binder, It was a library clone during selection) ASVSDVPRDLEVVAATPTSLLISWHYTCADSYRITYGETGGNSPVQEFTVPWYVSNATISGLKPGVDYTITVYVVTHYYGWDRYSHPISINYRTGSHHHHHH",binding result,[1],binds
"FN3CD20 clone displayed on the yeast surface (designed binder, not shown: large carriers, also called one clone; this clone) ASVSDVPRDLEVVAATPTSLLISWCRQRCADSYRITYGETGGNSPVQEFTVPGSWKTATISGLKPGVDYTITVYVVTHYYGWDRYSHPISINYRTGSHHHHHH",Kd,[2],14.3 nM
"64Cu-Do-FN3CD20 (64Cu-DOTA-labelled FN3CD20) (designed binder, DOTA conjugated to primary amines (1.8 DOTA molecules per FN3 protein), chelating 64Cu, also called 64Cu-FN3CD20; 64Cu-FN3) ASVSDVPRDLEVVAATPTSLLISWCRQRCADSYRITYGETGGNSPVQEFTVPGSWKTATISGLKPGVDYTITVYVVTHYYGWDRYSHPISINYRTGSHHHHHH",binding result,[3],binds
"FN3CD20 (engineered fibronectin type 3 domain binding CD20, soluble, C-terminal His6 tag) (designed binder, Made in E. coli with a His6 tag; also called FN3 scaffold) ASVSDVPRDLEVVAATPTSLLISWCRQRCADSYRITYGETGGNSPVQEFTVPGSWKTATISGLKPGVDYTITVYVVTHYYGWDRYSHPISINYRTGSHHHHHH",Kd,[4],20 nM
same,Kd,[5],22 nM
"FN3CD20-03 (fibronectin type 3 domain clone selected against the CD20 peptide from the G4 library) (designed binder, It was a library clone during selection) ASVSDVPRDLGVVAATPTSLLISWHSSDVSYYRITYGETGGNSPVQEFTVPYWFTNTTISGLKPGVDYTITVYAATYRDCSSEPISINYRTGSHHHHHH",binding result,[1],binds
